Data published in paper PMC13466294, “Nucleolaron1511 and Nucleolaron1510 Facilitate Effective Intracellular Delivery of Azami Green Protein in HeLa Cells” (International Journal of Molecular Sciences, 2026).

How the values were obtained:
HeLa cells [1] = test: Cell viability by MTT assay; type: cell-based; conditions: 24 h
Description: To assess the cytotoxic potential of Nuc1511 and Nuc1510, HeLa cells were treated with AG–Nuc1511 or AG–Nuc1510 at concentrations of 1, 3, 5, and 10 µM for 24 h, and cell viability was quantified using the MTT assay (Figure 4). AG–Nuc1511 caused a gradual concentration-dependent decline in viability, reaching approximately 78% at 10 µM, which was statistically significant relative to the untreated control. […] Taken together, both fusion proteins were well tolerated at concentrations up to 5 µM, with cytotoxicity becoming apparent only at 10 µM.
HeLa cells were seeded at 1 × 10^4 cells per well in 96-well microplates (Nunc^TM MicroWell^TM; Thermo Fisher Scientific) and allowed to adhere overnight. The culture medium was replaced with AG–Nuc1511 or AG–Nuc1510 at 1, 3, 5, or 10 µM prepared in DMEM supplemented with 10% FBS. Cell viability was assessed by MTT assay. Following 24 h incubation, treatment solutions were removed and cells were washed with PBS. A mixture of 50 µL MTT solution (Fujifilm) (5 mg/mL in PBS) and 50 µL Opti-MEM I Reduced Serum Medium (Thermo Fisher Scientific) was added to each well, and plates were incubated at 37 °C for 3 h. The medium was then removed, and formazan crystals were dissolved by addition of 150 µL MTT solvent (4 mM HCl, 0.1% NP-40 substitute in isopropanol), followed by 30 min agitation on an orbital shaker protected from light, with additional pipetting to ensure complete dissolution. Absorbance was measured at 590 nm. All conditions were performed in triplicate.

HeLa cells [2] = test: Cellular uptake of TAMRA-labeled Nuc1510 by fluorescence microscopy; type: cell-based; conditions: 5 µM in DMEM with 10% FBS, 1 h, 4 h or overnight (any incubation condition)
Description: To examine the intrinsic cell-penetrating ability of Nuc1510, HeLa cells were treated with TAMRA-labeled Nuc1510 prepared in medium supplemented with 10% FBS and analyzed by fluorescence microscopy at 1 h, 4 h, and overnight incubation time points.
HeLa cells were seeded at 2 × 10^4 cells per well in 8-well chamber slides (Millicell EZ Slide, Sigma-Aldrich, St. Louis, MO, USA; or µ-Slide 8 Well glass-bottom, ibidi, Gräfelfing, Germany) and allowed to adhere for 24 h. For assessment of intrinsic cell-penetrating ability, the culture medium was replaced with free TAMRA or TAMRA–Nuc1510 at 5 µM prepared in DMEM supplemented with 10% FBS. For assessment of cargo delivery, cells were treated with AG, AG–Nuc1511, AG–Nuc1510, or AG–TAT at 1, 2, or 3 µM prepared in DMEM with 10% FBS. All cargo delivery treatments were performed at 37 °C, and the highest concentration (3 µM) was additionally tested at 4 °C to assess the contribution of energy-dependent uptake pathways.
TAMRA–Nuc1510 samples were incubated for 1 h, 4 h, or overnight at 37 °C, whereas all AG–CPP samples were incubated overnight only. […] Fluorescence imaging was performed using a Keyence BZ-X800 (Keyence, Osaka, Japan) digital fluorescence microscope. […]

four cell lines = conditions: CPP fused to EGFP, across four cell lines; ref 45 (Patel et al.); cited from earlier work
Description: To quantify intracellular delivery, flow cytometry was performed following a stringent surface-depletion protocol. Cells were washed with an acidic glycine-NaCl solution to disrupt electrostatic interactions between surface-bound AG–CPP and the plasma membrane, then treated with trypsin, which both detaches cells from the culture plate and cleaves CPP sequences at arginine and lysine residues—amino acids abundant in all constructs tested—thereby eliminating residual surface-associated fluorescence. This protocol ensures that the measured fluorescence predominantly reflects int ...

MKDHLIHNHHKEEHAHAHNKDYDIPTTHHAHHSTENLYFQGSSGSSGMSVIKPEMKIKLCMRGTVNGHNFVIEGEGKGNPYEGTQILDLNVTEGAPLPFAYDILTTVFQYGNRAFTKYPADIQDYFKQTFPEGYHWERSMTYEDQGICTATSNISMRGDCFFYDIRFDGTNFPPNGPVMQKKTLKWEPSTEKMYVRDGVLKGDVNMALLLEGGGHYRCDFKTTYKAKKDVRLPDAHKVDHRIEILKHDKDYNKVKLYENAVARYSMLPSQAKGLQQGGTGGGGSKVLSRVVQLCREKLTRRRRSNRR [AG–Nuc1510, monomeric Azami Green genetically fused at its C-terminus via a linker to Nuc1510]
Reduction of viability (HeLa cells [1]; 10 µM): approximately 50%
Effect on viability (HeLa cells [1]; 1, 3, or 5 µM, Welch's t-test against untreated control): did not significantly reduce viability

5(6)-carboxytetramethylrhodamine [Free TAMRA]
Intracellular TAMRA fluorescence (HeLa cells [2]): no detectable intracellular fluorescence

Penetratin
Uptake efficiency relative to TAT (four cell lines): performed comparably to TAT

MKDHLIHNHHKEEHAHAHNKDYDIPTTHHAHHSTENLYFQGSSGSSGMSVIKPEMKIKLCMRGTVNGHNFVIEGEGKGNPYEGTQILDLNVTEGAPLPFAYDILTTVFQYGNRAFTKYPADIQDYFKQTFPEGYHWERSMTYEDQGICTATSNISMRGDCFFYDIRFDGTNFPPNGPVMQKKTLKWEPSTEKMYVRDGVLKGDVNMALLLEGGGHYRCDFKTTYKAKKDVRLPDAHKVDHRIEILKHDKDYNKVKLYENAVARYSMLPSQAKGLQQGGTGGGGSTLKERCLQVVRSLVKKKRTLRKNDRKKR [AG–Nuc1511, monomeric Azami Green genetically fused at its C-terminus via a linker to Nuc1511]
Viability (%) (HeLa cells [1]; 10 µM, relative to untreated cells (100%), n = 3, 10 µM): approximately 78%
